Drawing on the RNAGym collection of RNA variant scans (doi:10.1093/molbev/msab373), this text covers reverse-splicing fitness for 84 variants.

To fix the notation:
B1: Azoarcus group I ribozyme (parent)
chain: GUGCCUUGCGCCGGGAAACCACGCAAGGGAUGGUGUCAAAUUCGGCGAAACCUAAGCGCCCGCCCGGGCGUAUGGCAACGCCGAGCCAAGCUUCGGCGCCUGCGCCGAUGAAGGUGUAGAGACUAGACGGCACCCACCUAAGGCAAACGCUAUGGUGAAGGCAUAGUCCAGGGAGUGGCGAAAGUCACACAAACCGG

The series covers variants of B1. Nature of the series: reverse-splicing fitness (ratio to wild type); higher = more active; in vitro selection; Mg2+ level not given. An outline of the steps:
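An in vitro group I ribozyme library with randomized positions was T7-transcribed and gel-purified. In triplicate, 10 pmol RNA in EPPS pH 7.5 was reacted with 50 pmoles of a 30-nt RNA substrate for 1 h at 37 °C across several added MgCl2 levels (1–48 mM), then stopped with EDTA. Products were reverse transcribed from a substrate-complementary primer, PCR-amplified and sequenced (HiSeq 4000). Fitness is a variant's read proportion after selection over that before, normalised to wild type.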
As for C82A A111U A145U C150U U176A, the reverse-splicing fitness was 0.0636.
For C82A A111U A145U C150U U176C, the reverse-splicing fitness came out at 0.0933.
Then C82A A111U A120U C169A U176C, with 0.0039; and C82A A111U A120U C169A U176A, with 0.00348.
Then C82A A111U A120U C169A U176G, with 0.00243; and C82A A111U A120U C150A C169G U176A, with 0.00956.
To C82A A111U A120U C150A C169G U176C belongs 0.00511; to C82A A111U A120U C150A C169G U176G, 0.00222.
Turning to C82A A111U A145G C150U C169G U176G, the reverse-splicing fitness is 0.00676.
Then C82A A111U A145G C150U C169G U176C, with 0.0194; and C82A A111U A145G C150U C169G U176A, with 0.0134; and C82A A111U A120U A145G C150U C169U U176C, with 0.00506.
For C82A A111U A120U A145G C150U C169U U176A, the reverse-splicing fitness stood at 0.00537.
With C82A A111U A120U A145G C150U C169U U176G, the reverse-splicing fitness turned out to be 0.00286.
To C82A A111U A120U A145G C169A U176G belongs 0.00239; to C82A A111U A120U A145G C169A U176A, 0.00409; to C82A A111U A120U A145G C169A U176C, 0.00356.
Then C82A A111U A120U C169U U176G, with 0.00228; and C82A A111U A120U C169U U176C, with 0.00461.
Consider C82A A111U A120U C169U U176A, for which the reverse-splicing fitness amounted to 0.00519.
Regarding C82A A111U A120U C150A, the reverse-splicing fitness worked out at 0.00876.
To C82A A111U A120U C150G belongs 0.00757.
In the case of C82A A111U A120U C150U, the reverse-splicing fitness amounted to 0.016.
To C82A A111U A145C C169G U176G belongs 0.00654; to C82A A111U A145C C169G U176A, 0.0281; to C82A A111U A145C C169G U176C, 0.0185.
To C82A A111U A120U A145U belongs 0.0216.
On to C82A A111U A145G C150A C169U U176G, for which the reverse-splicing fitness was 0.00831.
Then C82A A111U A145G C150A C169U U176A, with 0.0158.
On to C82A A111U A145G C150A C169U U176C, for which the reverse-splicing fitness came out at 0.0161.
Turning to C82A A111U A145G C169G U176A, the reverse-splicing fitness is 0.023.
To C82A A111U A145G C169G U176C belongs 0.0304; to C82A A111U A145G C169G U176G, 0.00674.
Then C82A A111U A145C C150G, with 0.0267; and C82A A111U A145C C150A, with 0.0156; and C82A A111U A145C C150U, with 0.0537.
To C82A A111U A145U C150U C169U U176A belongs 0.0147.
Take C82A A111U A145U C150U C169U U176C: the reverse-splicing fitness was 0.0143.
To C82A A111U A145U C150U C169U U176G belongs 0.00717.
Then C82A A111U A120U C150A U176G, with 0.0037.
Then C82A A111U A120U C150A U176C, with 0.00653.
In the case of C82A A111U A120U C150A U176A, the reverse-splicing fitness was determined as 0.00697.
To C82A A111U A145U C150A C169A U176A belongs 0.0158.
Take C82A A111U A145U C150A C169A U176G: the reverse-splicing fitness is 0.00765.
To C82A A111U A145U C150A C169A U176C belongs 0.0138.
To C82A A111U A120U A145U C150G U176G belongs 0.00272; to C82A A111U A120U A145U C150G U176A, 0.00344; to C82A A111U A120U A145U C150G U176C, 0.00545.
Regarding C82A A111U A145U C169A, the reverse-splicing fitness stood at 0.00911.
Then C82A A111U A145U C169G, with 0.00938; and C82A A111U A145U C169U, with 0.0125; and C82A A111U A145C C169A U176A, with 0.0109.
With C82A A111U A145C C169A U176C, the reverse-splicing fitness is 0.00816.
Then C82A A111U A145C C169A U176G, with 0.00702; and C82A A111U A120U A145G C169U, with 0.00488.
To C82A A111U A120U A145G C169A belongs 0.0037; to C82A A111U A120U A145G C169G, 0.00467; to C82A A111U A120U A145U C169A U176G, 0.00222.
Then C82A A111U A120U A145U C169A U176A, with 0.00283.
For C82A A111U A120U A145U C169A U176C, the reverse-splicing fitness was found to be 0.00197.
For C82A A111U A120U A145U C150U C169A U176C, the reverse-splicing fitness is 0.00305.
Then C82A A111U A120U A145U C150U C169A U176G, with 0.00243; and C82A A111U A120U A145U C150U C169A U176A, with 0.00366.
Take C82A A111U A145U C150A U176A: the reverse-splicing fitness stood at 0.018.
Then C82A A111U A145U C150A U176G, with 0.00989.
To C82A A111U A145U C150A U176C belongs 0.0251; to C82A A111U A145C C150G C169U U176A, 0.00896.
To C82A A111U A145C C150G C169U U176G belongs 0.00633; to C82A A111U A145C C150G C169U U176C, 0.0103; to C82A A111U A120U C150G C169G U176G, 0.00289.
As to C82A A111U A120U C150G C169G U176C, the reverse-splicing fitness is 0.00289.
To C82A A111U A120U C150G C169G U176A belongs 0.00475; to C82A A111U A120U A145U C150G C169G, 0.00379.
To C82A A111U A120U A145U C150G C169U belongs 0.00332; to C82A A111U A120U A145U C150G C169A, 0.00467.
For C82A A111U A120U C150U C169U U176C, the reverse-splicing fitness worked out at 0.00448.
Then C82A A111U A120U C150U C169U U176G, with 0.00262.
To C82A A111U A120U C150U C169U U176A belongs 0.00662; to C82A A111U A145U C150U, 0.181; to C82A A111U A145U C150G, 0.0256.
Then C82A A111U A145U C150A, with 0.0253; and C82A A111U A145C C150U C169U, with 0.0112; and C82A A111U A145C C150U C169A, with 0.0081.
With C82A A111U A145C C150U C169G, the reverse-splicing fitness was determined as 0.00788.
